From US20250034277A1 (SUZHOU ALPHAMAB, published 2025)

How the values were obtained:
[1] = target: T1, FXI in standard human plasma (human, UniProt P03951 19-625); experiment: cell-based or functional assay
[2] = target: T1, FXI in standard human plasma; experiment: cell-based or functional assay; remark: listed apart in the source
FXI in rabbit plasma [3] = target: FXI in rabbit plasma (rabbit); experiment: cell-based or functional assay
FXI in rat plasma = FXI in rat plasma (rat); experiment: cell-based or functional assay
FXI in monkey plasma = FXI in monkey plasma (monkey); experiment: cell-based or functional assay
FXI in cynomolgus plasma = FXI in cynomolgus plasma (cynomolgus); experiment: cell-based or functional assay
FXI in rabbit plasma [4] = target: FXI in rabbit plasma (rabbit); experiment: cell-based or functional assay; remark: listed apart in the source
hFXI-CHis protein = target: T2, hFXI-CHis protein (human, UniProt P03951 19-625); experiment: BLI, antibody on Protein A biosensor, hFXI-Chis 50-3.125 nM, 1:1 model
T2 construct: FXI is said in the background to be a dimer; nothing is said of the construct; also called human FXI; human FXI factor protein; not shown: C-terminal His tag (CHis)

B1: reference antibody 14E11 (antibody, human IgG1, kappa, V domains shown)
VH: QVQLEESGPGLVAPSQSLSITCTVSGFSLTGYGIYWVRQPPGKGLEWLGMIWGDGRTDYNSALKSRLSISKDNSKSQVFLKMNSLQTDDTARYYCARDYYGSKDYWGQGTTLTVSS
VL: DIVMTQSHKFMSTSVGDRVSITCKASQDVSTAVAWYQQKPGQSPKLLIYLTSYRNTGVPDRFTGSGSGTDFTFTISSVQAEDLAVYYCQQHYKTPYSFGGGTKLERLR
- whole blood APTT in standard human plasma at 0.1 µg/mL [1]: 22.9
- whole blood APTT in standard human plasma at 0.5 µg/mL [1]: 25.1
- whole blood APTT in standard human plasma at 1 µg/mL [1]: 28.3
- whole blood APTT in standard human plasma at 2 µg/mL [1]: 38.3
- whole blood APTT in standard human plasma at 5 µg/mL [1]: 47.2
- whole blood APTT in standard human plasma at 10 µg/mL [1]: 48.1
- APTT ratio in standard human plasma at 0.1 µg/mL [2]: 1 ratio
- APTT ratio in standard human plasma at 0.5 µg/mL [2]: 1.09 ratio
- APTT ratio in standard human plasma at 1 µg/mL [2]: 1.23 ratio
- APTT ratio in standard human plasma at 2 µg/mL [2]: 1.67 ratio
- APTT ratio in standard human plasma at 5 µg/mL [2]: 2.05 ratio
- APTT ratio in standard human plasma at 10 µg/mL [2]: 2.09 ratio
- whole blood APTT in rabbit plasma at 0.1 µg/mL (FXI in rabbit plasma [3]): 15.6
- whole blood APTT in rabbit plasma at 0.5 µg/mL (FXI in rabbit plasma [3]): 16.1
- whole blood APTT in rabbit plasma at 1 µg/mL (FXI in rabbit plasma [3]): 17.2
- whole blood APTT in rabbit plasma at 2 µg/mL (FXI in rabbit plasma [3]): 21.5
- whole blood APTT in rabbit plasma at 5 µg/mL (FXI in rabbit plasma [3]): 34.5
- whole blood APTT in rabbit plasma at 10 µg/mL (FXI in rabbit plasma [3]): 37.8
- APTT ratio in rat plasma at 0.5 µg/mL (FXI in rat plasma): 1.08 ratio
- APTT ratio in rat plasma at 1 µg/mL (FXI in rat plasma): 1.04 ratio
- APTT ratio in rat plasma at 2 µg/mL (FXI in rat plasma): 1.13 ratio
- APTT ratio in rat plasma at 5 µg/mL (FXI in rat plasma): 1.37 ratio
- APTT ratio in rat plasma at 10 µg/mL (FXI in rat plasma): 1.34 ratio
- APTT ratio in rat plasma at 30 µg/mL (FXI in rat plasma): 1.37 ratio
- whole blood APTT in monkey plasma at 0.1 µg/mL (FXI in monkey plasma): 20.9
- whole blood APTT in monkey plasma at 0.5 µg/mL (FXI in monkey plasma): 22.4
- whole blood APTT in monkey plasma at 1 µg/mL (FXI in monkey plasma): 24.7
- whole blood APTT in monkey plasma at 2 µg/mL (FXI in monkey plasma): 39.6
- whole blood APTT in monkey plasma at 5 µg/mL (FXI in monkey plasma): 51.4
- whole blood APTT in monkey plasma at 10 µg/mL (FXI in monkey plasma): 52.8
- APTT ratio in cynomolgus plasma at 0.1 µg/mL (FXI in cynomolgus plasma): 1 ratio
- APTT ratio in cynomolgus plasma at 0.5 µg/mL (FXI in cynomolgus plasma): 1.07 ratio
- APTT ratio in cynomolgus plasma at 1 µg/mL (FXI in cynomolgus plasma): 1.18 ratio
- APTT ratio in cynomolgus plasma at 2 µg/mL (FXI in cynomolgus plasma): 1.89 ratio
- APTT ratio in cynomolgus plasma at 5 µg/mL (FXI in cynomolgus plasma): 2.46 ratio
- APTT ratio in cynomolgus plasma at 10 µg/mL (FXI in cynomolgus plasma): 2.53 ratio
- APTT ratio in rabbit plasma at 0.1 µg/mL (FXI in rabbit plasma [4]): 0.85 ratio
- APTT ratio in rabbit plasma at 0.5 µg/mL (FXI in rabbit plasma [4]): 0.88 ratio
- APTT ratio in rabbit plasma at 1 µg/mL (FXI in rabbit plasma [4]): 0.93 ratio
- APTT ratio in rabbit plasma at 2 µg/mL (FXI in rabbit plasma [4]): 1.17 ratio
- APTT ratio in rabbit plasma at 5 µg/mL (FXI in rabbit plasma [4]): 1.88 ratio
- APTT ratio in rabbit plasma at 10 µg/mL (FXI in rabbit plasma [4]): 2.05 ratio

B2: reference antibody BAY1213790 (antibody, human IgG1, kappa, V domains shown)
VH: EVQLLESGGGLVQPGGSLRLSCAASGFTFSQYGMDWVRQAPGKGLEWVSGIGPSGGSTVYADSVKGRFTISRDNSKNTLYLQMNSLRAEDTAVYYCTRGGPYYYYGMDVWGQGTTVTVSS
VL: DIQMTQSPSSLSASVGDRVTITCQASQDISNYLNWYQQKPGKAPKLLIYDASNLETGVPSRFSGSGSGTDFTFTISSLQPEDIATYYCQQADSFPVTFGGGTKVEIKR
notes: Anti-FXI antibody developed by Bayer
- whole blood APTT in standard human plasma at 0.1 µg/mL [1]: 22.9
- whole blood APTT in standard human plasma at 0.5 µg/mL [1]: 26.3
- whole blood APTT in standard human plasma at 1 µg/mL [1]: 29.2
- whole blood APTT in standard human plasma at 2 µg/mL [1]: 36.4
- whole blood APTT in standard human plasma at 5 µg/mL [1]: 45.6
- whole blood APTT in standard human plasma at 10 µg/mL [1]: 51.1
- APTT ratio in standard human plasma at 0.1 µg/mL [2]: 1 ratio
- APTT ratio in standard human plasma at 0.5 µg/mL [2]: 1.14 ratio
- APTT ratio in standard human plasma at 1 µg/mL [2]: 1.27 ratio
- APTT ratio in standard human plasma at 2 µg/mL [2]: 1.58 ratio
- APTT ratio in standard human plasma at 5 µg/mL [2]: 1.98 ratio
- APTT ratio in standard human plasma at 10 µg/mL [2]: 2.22 ratio
- Kd (hFXI-CHis protein): 4.12 nM
- whole blood APTT in rabbit plasma at 0.1 µg/mL (FXI in rabbit plasma [3]): 15.3
- whole blood APTT in rabbit plasma at 0.5 µg/mL (FXI in rabbit plasma [3]): 16
- whole blood APTT in rabbit plasma at 1 µg/mL (FXI in rabbit plasma [3]): 16.4
- whole blood APTT in rabbit plasma at 2 µg/mL (FXI in rabbit plasma [3]): 18.1
- whole blood APTT in rabbit plasma at 5 µg/mL (FXI in rabbit plasma [3]): 24.1
- whole blood APTT in rabbit plasma at 10 µg/mL (FXI in rabbit plasma [3]): 28.8
- whole blood APTT in monkey plasma at 0.1 µg/mL (FXI in monkey plasma): 21
- whole blood APTT in monkey plasma at 0.5 µg/mL (FXI in monkey plasma): 23.1
- whole blood APTT in monkey plasma at 1 µg/mL (FXI in monkey plasma): 25.6
- whole blood APTT in monkey plasma at 2 µg/mL (FXI in monkey plasma): 30.2
- whole blood APTT in monkey plasma at 5 µg/mL (FXI in monkey plasma): 37.1
- whole blood APTT in monkey plasma at 10 µg/mL (FXI in monkey plasma): 42.5
